Starred links: 1 amine or outer side, 2 acyl side, 3 side chain; linkers in the order of their positions; H or OH if unused. Positions of bridges follow the written chain, without caps; N, C: chain ends. Groups on a side chain read outwards from the residue. Chains are numbered I, II in the order given. No end group written: not given here. *: point of attachment. Phe(Nα-CONH2) = NC(=O)N[C@@H](Cc1ccccc1)C(=O)*; C20 diacid = O=C(O)CCCCCCCCCCCCCCCCCCC(=O)*; C18 diacid = O=C(O)CCCCCCCCCCCCCCCCC(=O)*; NMe2Phe = CN(C)[C@@H](Cc1ccccc1)C(=O)*; γGlu = O=C(O)[C@H](CCC(=O)[*:2])N[*:1]; Hydantoyl = NC(=O)NCC(=O)*; AEEA = NCCOCCOCC(=O)O; Me2Gly = CN(C)CC(=O)*
Tests used:
[1] = Chemical stability of insulin derivatives in 2 mM phosphate (SEC-HPLC and RP-HPLC); format: physicochemical; conditions: 4 weeks 37° C. minus 5° C. start sample; for Chemical degradation (%) (4 weeks 37° C.- 0 weeks 5° C.): pH 7.5, RP-HPLC; for HMWP Formation (%) (4 weeks 37° C.- 0 weeks 5° C.): pH 7.5, SEC-HPLC
Protocol: Chemical stability of an insulin derivative is assessed after incubating insulin derivative in 2 mM phosphate, pH=7.5 at 37° C. for up to 8 weeks. Formation of high molecular weight products (HMWP) is determined by SEC HPLC analysis after 0, 2, 4 and optionally 8 weeks. The results of the SEC method are given as a difference between HMWP formation at 37° C. and 5° C. start sample as a percentage of total absorbance at 215 nm. Chemical degradation products are determined by RP HPLC analysis after 0, 2, 4 and optionally 8 weeks. The results of the RP method are given as a difference between chemical degradation observed at 37° C. and 5° C. start sample as a percentage of total absorbance at 215 nm.
• Solvent: 500 mM NaCl, 10 mM NaH2PO4, 5 mM H3PO4, 50% (v/v) 2-propanol • Flow: 0.5 ml/min • Run time: 30 min • UV Detection: 215 nm • Column: Insulin HMWP column from Waters 7.8×300 mm • Temperature: 50° C.
• Solvent A: 0.09M phosphate buffer pH 3.6 (di-ammoniumhydrogenphosphate), 10% MeCN (v/v) • Solvent B: 80% MeCN (v/v %) • Flow: 0.3 ml/min • Runtime: 33 min • UV Detection: 215 nm • Column: Waters Acquity BEH130 C18 Column 1.7 μm, 150×2.1 mm • Temperature: 50° C. • Gradient: […]

human insulin receptor [2] = molecular target: T1, human insulin receptor (Homo sapiens, UniProt P06213); assay: Insulin receptor affinity, SPA antibody capture assay (0% HSA); format: binding; conditions: relative to the affinity of human insulin
T1 sequence (P06213 28-746 isoform P06213-2 limits assumed): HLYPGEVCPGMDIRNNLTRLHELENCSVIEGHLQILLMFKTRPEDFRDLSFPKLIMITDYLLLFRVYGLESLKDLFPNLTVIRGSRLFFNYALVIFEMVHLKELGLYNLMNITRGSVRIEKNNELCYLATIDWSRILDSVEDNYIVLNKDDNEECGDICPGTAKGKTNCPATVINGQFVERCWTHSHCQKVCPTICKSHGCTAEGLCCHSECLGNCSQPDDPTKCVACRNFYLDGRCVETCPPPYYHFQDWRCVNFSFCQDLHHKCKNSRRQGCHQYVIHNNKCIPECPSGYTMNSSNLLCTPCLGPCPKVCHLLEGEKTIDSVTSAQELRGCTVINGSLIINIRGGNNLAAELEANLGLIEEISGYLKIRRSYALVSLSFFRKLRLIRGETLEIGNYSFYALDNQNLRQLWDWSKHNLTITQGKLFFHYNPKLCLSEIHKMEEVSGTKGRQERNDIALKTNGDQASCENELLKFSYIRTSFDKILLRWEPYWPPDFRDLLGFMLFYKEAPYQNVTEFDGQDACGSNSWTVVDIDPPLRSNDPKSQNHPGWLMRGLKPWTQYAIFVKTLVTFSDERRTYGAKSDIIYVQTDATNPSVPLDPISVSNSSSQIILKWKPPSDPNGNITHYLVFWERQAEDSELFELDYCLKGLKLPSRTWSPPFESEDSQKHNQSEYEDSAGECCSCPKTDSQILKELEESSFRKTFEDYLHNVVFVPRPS
T1 sequence (P06213 763-1382 partner limits assumed): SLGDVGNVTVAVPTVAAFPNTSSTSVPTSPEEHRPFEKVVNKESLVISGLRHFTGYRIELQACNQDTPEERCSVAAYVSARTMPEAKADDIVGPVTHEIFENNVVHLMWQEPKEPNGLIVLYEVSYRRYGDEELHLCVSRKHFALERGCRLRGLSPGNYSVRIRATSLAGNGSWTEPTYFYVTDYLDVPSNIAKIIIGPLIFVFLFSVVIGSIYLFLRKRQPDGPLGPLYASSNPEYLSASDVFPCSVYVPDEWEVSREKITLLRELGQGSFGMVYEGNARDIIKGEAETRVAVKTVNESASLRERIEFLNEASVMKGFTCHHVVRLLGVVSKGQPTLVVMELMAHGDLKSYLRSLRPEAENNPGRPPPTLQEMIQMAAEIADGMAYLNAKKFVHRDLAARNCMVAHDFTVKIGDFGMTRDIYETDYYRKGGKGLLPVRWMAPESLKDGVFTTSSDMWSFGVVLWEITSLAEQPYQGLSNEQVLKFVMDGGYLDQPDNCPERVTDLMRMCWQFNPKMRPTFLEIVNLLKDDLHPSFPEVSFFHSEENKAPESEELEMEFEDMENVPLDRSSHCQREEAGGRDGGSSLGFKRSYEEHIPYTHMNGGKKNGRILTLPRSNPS
Protocol: (§1) SPA-PVT antibody-binding beads, anti-mouse reagent (Amersham Bio-sciences, Cat No. PRNQ0017) are mixed with 25 ml of binding buffer (100 mM HEPES pH 7.8; 100 mM sodium chloride, 10 mM MgSO4, 0.025% Tween-20). […] A total of 100 μl reagent mix is then added to each well in the Packard Optiplate and a dilution series of the N-terminally modified insulin is made in the Optiplate from appropriate samples. The samples are then incubated for 16 hours while gently shaken. The phases are the then separated by centrifugation for 1 min and the plates counted in a Topcounter.

human insulin receptor [3] = molecular target: T1, human insulin receptor; assay: Insulin receptor affinity, SPA assay with […] HSA in binding buffer; conditions: relative to the affinity of human insulin
Protocol: as §1

[4] = Hydrophobicity by isocratic reverse phase HPLC; format: physicochemical; conditions: k'rel, isocratic RP-HPLC, pH 7.3, human insulin = 1
Protocol: The hydrophobicity of an N-terminally modified insulin is found by reverse phase HPLC run under isocratic conditions. […] The hydrophobicity, k′rel, is calculated as: k′relderiv=((tderiv−t0)(tref−t0)*k′relref. Using HI as reference: k′relref=k′relHI=1. The void time of the HPLC system, t0, is determined by injecting 5 μl of 0.1 mM NaNO3. Running conditions:
Column: Lichrosorb RP-C18, 5 μm, 4×250 mm
Buffer A: 0.1 M natrium phosphate pH 7.3, 10 vol % CH3CN
After running an initial gradient, the isocratic level for running the derivative and reference (for example HI) is chosen, and the elution times of the derivative and reference under isocratic conditions are used in the above equation to calculate k′relderiv.

I: Me2Gly-VCQHLCGSHLVEALHLVCGERGFHYTPK([γGlu-C18 diacid]) / II: Me2Gly-IVEQCCTSCCSLEQLENYCN (disulfide I:2-II:9, I:6-II:6, I:18-II:19, II:5-II:10) [Example 8, A1(N^α,N^α-Dimethyl), A10C, A14E, B1G(N^α,N^α-dimethyl), B3C, B16H, B25H, B29K(N^εoctadecanedioyl-gGlu), desB30 Human Insulin]
Chemical degradation (%) (4 weeks 37° C.- 0 weeks 5° C.) [1]: 66.4%
HMWP Formation (%) (4 weeks 37° C.- 0 weeks 5° C.) [1]: 54.5%

I: Me2Gly-VCQHLCGSHLVEALYLVCGERGFFYPK([AEEA-AEEA-γGlu-C18 diacid]) / II: Me2Gly-IVEQCCTSCCSLEQLENYCN (disulfide I:2-II:9, I:6-II:6, I:18-II:19, II:5-II:10) [Example 14, A1(N^α,N^α-Dimethyl), A10C, A14E, B1G(N^α,N^α-dimethyl), B3C, desB27, B29K(N^εoctadecanedioyl-gGlu-2×OEG), desB30 Human Insulin]
HMWP Formation (%) (4 weeks 37° C.- 0 weeks 5° C.) [1]: 0.0%

I: Me2Gly-VCQHLCGSHLVEALYLVCGERGFFYPK([γGlu-C18 diacid]) / II: Me2Gly-IVEQCCTSCCSLEQLENYCN (disulfide I:2-II:9, I:6-II:6, I:18-II:19, II:5-II:10) [Example 9, A1(N^α,N^α-Dimethyl), A10C, A14E, B1G(N^α,N^α-dimethyl), B3C, desB27, B29K(N^εoctadecanedioyl-gGlu), desB30 Human Insulin]
Chemical degradation (%) (4 weeks 37° C.- 0 weeks 5° C.) [1]: 5.7%

I: Me2Gly-VCQHLCGSHLVEALYLVCGERGFHYPK([AEEA-AEEA-γGlu-C18 diacid]) / II: Me2Gly-IVEQCCTSCCSLEQLENYCN (disulfide I:2-II:9, I:6-II:6, I:18-II:19, II:5-II:10) [Example 15, A1(N^α,N^α-Dimethyl), A10C, A14E, B1G(N^α,N^α-dimethyl), B3C, B25H, desB27, B29K(N^εoctadecanedioyl-gGlu-2×OEG), desB30 Human Insulin]
Chemical degradation (%) (4 weeks 37° C.- 0 weeks 5° C.) [1]: 10.4%
HMWP Formation (%) (4 weeks 37° C.- 0 weeks 5° C.) [1]: 1.2%

I: Me2Gly-VCQHLCGSHLVEALYLVCGERGFHYPK([γGlu-C18 diacid]) / II: Me2Gly-IVEQCCTSCCSLEQLENYCN (disulfide I:2-II:9, I:6-II:6, I:18-II:19, II:5-II:10) [Example 7, A1(N^α,N^α-Dimethyl), A10C, A14E, B1G(N^α,N^α-dimethyl), B3C, B25H, desB27, B29K(N^εoctadecanedioyl-gGlu), desB30 Human Insulin]
Chemical degradation (%) (4 weeks 37° C.- 0 weeks 5° C.) [1]: 0.6%
HMWP Formation (%) (4 weeks 37° C.- 0 weeks 5° C.) [1]: 0.4%

I: Me2Gly-VCQHLCGSHLVEALYLVCGERGFHYTPK([AEEA-AEEA-γGlu-C18 diacid]) / II: Me2Gly-IVEQCCTSCCSLEQLENYCN (disulfide I:2-II:9, I:6-II:6, I:18-II:19, II:5-II:10) [Example 16, A1(N^α,N^α-Dimethyl), A10C, A14E, B1G(N^α,N^α-dimethyl), B3C, B25H, B29K(N^εoctadecanedioyl-gGlu-2×OEG), desB30 Human Insulin]
Chemical degradation (%) (4 weeks 37° C.- 0 weeks 5° C.) [1]: 58.0%
HMWP Formation (%) (4 weeks 37° C.- 0 weeks 5° C.) [1]: 42.7%

I: NMe2Phe-VCQHLCGSHLVEALHLVCGERGFHYTPK([AEEA-AEEA-γGlu-C18 diacid]) / II: Me2Gly-IVEQCCTSCCSLEQLENYCN (disulfide I:2-II:9, I:6-II:6, I:18-II:19, II:5-II:10) [Example 13, A1(N^α,N^α-Dimethyl), A10C, A14E, B1(N^α,N^α-dimethyl), B3C, B16H, B25H, B29K(N^εoctadecanedioyl-gGlu-2×OEG), desB30 Human Insulin]
Chemical degradation (%) (4 weeks 37° C.- 0 weeks 5° C.) [1]: 9.8%

I: NMe2Phe-VCQHLCGSHLVEALHLVCGERGFHYTPK([γGlu-C18 diacid]) / II: Me2Gly-IVEQCCTSCCSLEQLENYCN (disulfide I:2-II:9, I:6-II:6, I:18-II:19, II:5-II:10) [Example 4, A1(N^α,N^α-Dimethyl), A10C, A14E, B1(N^α,N^α-dimethyl), B3C, B16H, B25H, B29K(N^εoctadecanedioyl-gGlu), desB30 Human Insulin]
Chemical degradation (%) (4 weeks 37° C.- 0 weeks 5° C.) [1]: 8.7%
HMWP Formation (%) (4 weeks 37° C.- 0 weeks 5° C.) [1]: −0.4%

I: NMe2Phe-VCQHLCGSHLVEALYLVCGERGFHYPK([γGlu-C20 diacid]) / II: Me2Gly-IVEQCCTSCCSLEQLENYCN (disulfide I:2-II:9, I:6-II:6, I:18-II:19, II:5-II:10) [Example 18, A1(N^α,N^α-Dimethyl), A10C, A14E, B1(N^α,N^α-dimethyl), B3C, B25H, desB27, B29K(N^εeicosanedioyl-gGlu), desB30 Human Insulin]
Relative IR-A affinity (@ 0% HSA) (%) (human insulin receptor [2]): 0.72%
Relative IR-A affinity (@ […] HSA) (%)e (human insulin receptor [3]): 0.02%
Hydrophobicity rel. to human insulin [4]: 0.12
Chemical degradation (%) (4 weeks 37° C.- 0 weeks 5° C.) [1]: 4.2%
HMWP Formation (%) (4 weeks 37° C.- 0 weeks 5° C.) [1]: 5.1%

I: NMe2Phe-VCQHLCGSHLVEALYLVCGERGFHYTPK([AEEA-AEEA-γGlu-C18 diacid]) / II: Me2Gly-IVEQCCTSCCSLEQLENYCN (disulfide I:2-II:9, I:6-II:6, I:18-II:19, II:5-II:10) [Example 12, A1(N^α,N^α-Dimethyl), A10C, A14E, B1(N^α,N^α-dimethyl), B3C, B25H, B29K(N^εoctadecanedioyl-gGlu-2×OEG), desB30 Human Insulin]
Hydrophobicity rel. to human insulin [4]: 0.077

I: NMe2Phe-VCQHLCGSHLVEALYLVCGERGFHYTPK([γGlu-C18 diacid]) / II: Me2Gly-IVEQCCTSCCSLEQLENYCN (disulfide I:2-II:9, I:6-II:6, I:18-II:19, II:5-II:10) [Example 3, A1(N^α,N^α-Dimethyl), A10C, A14E, B1(N^α,N^α-dimethyl), B3C, B25H, B29K(N^εoctadecanedioyl-gGlu), desB30 Human Insulin]
Hydrophobicity rel. to human insulin [4]: 0.065
Chemical degradation (%) (4 weeks 37° C.- 0 weeks 5° C.) [1]: 3.4%

I: NMe2Phe-VCQHLCGSHLVEALYLVCGERGFHYTPK([γGlu-C20 diacid]) / II: Me2Gly-IVEQCCTSCCSLEQLENYCN (disulfide I:2-II:9, I:6-II:6, I:18-II:19, II:5-II:10) [Example 19, A1(N^α,N^α-Dimethyl), A10C, A14E, B1(N^α,N^α-dimethyl), B3C, B25H, B29K(N^εeicosanedioyl-gGlu), desB30 Human Insulin]
Chemical degradation (%) (4 weeks 37° C.- 0 weeks 5° C.) [1]: 11.7%
HMWP Formation (%) (4 weeks 37° C.- 0 weeks 5° C.) [1]: 34.6%

I: {Phe(Nα-CONH2)}-VCQHLCGSHLVEALYLVCGERGFFYPK([γGlu-C18 diacid]) / II: Hydantoyl-IVEQCCTSCCSLEQLENYCN (disulfide I:2-II:9, I:6-II:6, I:18-II:19, II:5-II:10) [Example 36, A1(N^α-Carbamoyl), A10C, A14E, B1(N^α-carbamoyl), B3C, desB27, B29K(N^εoctadecanedioyl-gGlu), desB30 Human Insulin]
Relative IR-A affinity (@ 0% HSA) (%) (human insulin receptor [2]): 0.7%
Relative IR-A affinity (@ […] HSA) (%)e (human insulin receptor [3]): 0.01%

Reference: patent US20140357838A1, “N-Terminally Modified Insulin Derivatives” (Novo Nordisk A/S, priority 2011, published 2014)
